The Kd is the equilibrium constant for the complex coming apart. Low values mean a tighter complex, high ones a looser complex. What is called koff is the first-order rate constant of dissociation. A word on the kon: it is the second-order rate constant of association. A high value points to faster complex formation.

Data on one molecule can be found in paper PMC6275602 (Cellular & Molecular Biology Letters, 2012).

Test [1] addresses T1, human low-density lipoprotein (LDL; d = 1.019-1.063 g/ml) (human). The experiment in a line: SPR. (In general: In SPR one partner is held on a chip, and binding of the other changes the refractive index at the surface.)
Test [2] has as its target T1, human low-density lipoprotein (LDL; d = …). The experiment in a line: SPR. This is another data set of the same source.

Like-named read-outs stand apart in the source and are kept apart here.

B1: sPLA2-X-HisTag, purified recombinant human (enzyme, UniProt O15496 43-165, looked up)
chain: GILELAGTVGCVGPRTPIAYMKYGCFCGLGGHGQPRDAIDWCCHGHDCCYTRAEEAGCSPKTERYSWQCVNQSVLCGPAENKCQELLCKCDQEIANCLAQTEYNLKYLFYPQFLCEPDSPKCD
In test [1], B1 had a Kd of 110 nM, a koff of 0.00886 s⁻¹ and a kon of 82500 M⁻¹ s⁻¹. In test [2], this molecule came in with a Kd of 3.1 nM, a koff of 0.00024 s⁻¹ and a kon of 65400 M⁻¹ s⁻¹.
